# Laboratory results reported in article PMC3365590 (Journal of Molecular Biology, 2010).
# B1: ROK fructokinase YdhR from Bacillus subtilis, native protein (size exclusion chromatography) (enzyme, B. subtilis, UniProt O05510 1-299, looked up)
# chain: MLGGIEAGGTKFVCAVGREDGTIIDRIEFPTKMPDETIEKVIQYFSQFSLQAIGIGSFGPVDNDKTSQTYGTITATPKAGWRHYPFLQTVKNEMKIPVGFSTDVNAAALGEFLFGEAKGLDSCLYITIGTGIGAGAIVEGRLLQGLSHPEMGHIYIRRHPDDVYQGKCPYHGDCFEGLASGPAIEARWGKKAADLSDIAQVWELEGYYIAQALAQYILILAPKKIILGGGVMQQKQVFSYIYQYVPKIMNSYLDFSELSDDISDYIVPPRLGSNAGIIGTLVLAHQALQAEAASGEVRS
# Target: the molecule itself
# Test: SEC
protein,measurement,value
B1,stoichiometry N,2
